The supplement of paper PMC9170038

Tested on: K4 kissing-loop RNA reporter
Experiment: apparent KD of K4 kissing-loop reporter; higher = weaker reporter binding
Details: Eterna round: R107
Description: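 RNA-MaP round R107: designed RNA switches with theophylline, tryptophan, arginine or FMN aptamers are transcribed on-chip within common flanks. They are titrated with a labelled K4 kissing-loop RNA reporter in RNA-MaP buffer (100 mM Tris pH 7.5, 80 mM KCl, 4 mM MgCl2), without ligand or with the indicated ligand. Median apparent KD per design.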

[1] = input ligand: theophylline 20 uM
[2] = input ligand: tryptophan 2.4 mM
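Also: bound reporter read as fluorescence of individual clusters on recovered sequencing chips by microscopy, with normalized cluster intensities fitted with a binding model.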

Sequence | apparent KD of K4 kissing-loop reporter (input ligand: FMN 200 uM) [nM] | apparent KD of K4 kissing-loop reporter (input ligand: arginine 13.2 mM) [nM] | apparent KD of K4 kissing-loop reporter (input ligand: none) [nM] | apparent KD of K4 kissing-loop reporter [1] [nM] | apparent KD of K4 kissing-loop reporter [2] [nM]
GUGCGGCUAGUGAUGUUGGUUGCGUGGGAAGGAGCGCAGAAACAUGCAGGUAGGUCGCCCACACCUCUGAAAGGAGGUUAAUUCA [Diusdige] | 200 | 172 | 133 | 171 | 248
GUGGAAUUAUGAAAGUGGUUUUAUAAGGAAGGAGCGGCCGAAAGGCCAGGUAGGUCGCCUAUUGACAGUGAUGUUGUUAUAUGGA [#13] | 105 | 180 | 103 | 168 | 75
GUUACGCAUGGAAGGAGCGCACUCCGAUUGGGCGACGCAGUGAUGUUGUGGUUCGUUCGAAUGCAGGUAGGUCGCCAUGUGUAAC [Ex Arginine B K4 21] | 186 | 172 | 176 | 141 | 192
GUUACGCAUGGAAGGAGCGCUCUCAGGCUUAAUAACACAGUGAUGUUGUGAAUUUGCCUAAAGCAGGUAGGUCGCCAUGUGUAAC [Ex Arginine B K4 9] | 426 | 400 | 440 | 423 | 392
GUUGUAUACUGAAGGAGCGAGUAGUGGAAACAUAAACUCAUUGCGAGUGAUGUUCGCGGUACUCAGGUAGGUCGCGGUAAUCGUA [Exclusion Arginine B Gf 11] | 820 | 328 | 800 | 485 | 403
UAAAAUAAAUAAUAGAGAGCGUUACUCGAAGGAGCGACGAAUUCGUCAGGUAGGUCGCGAGUGAUGUUCGCAAAUACGCUCUCAU [AK2 Exc Arginine A] | 838 | 655 | 850 | 696 | 682
UAAAUAAUAAAACGAGUGAUGUUCGACGAUACCAGCCUCGAUAGAGGCCCUUGGCAGCGUAAAUGAUCACAAAGCCAAGGUAUAA [#01 K4 Theophylline A Exclusion] | 165 | 183 | 159 | 199 | 138
UAAAUUAUCUGAAGGAGCGUGAAAUAAUAUUAAACAUAACAACCCAGUGAUGUUGGGUUAUCACAGGUAGGUCGCAGAUGUAGAU [Same State Arginie B GF 24] | 95.6 | 113 | 98 | 118 | 85.5
UAAGAGGACCACUGCAAAAGUCCUCGAAUACGAGGACCGGUACGGCCGCCACUCGAUAAUUUGCAGUGAUGUUGCAAGUAAGAAU [BrourdMod 4 - Jieux - Same State Tryptophan A] | 120 | 158 | 130 | 201 | 71.2
UAAUAAAUUCCAGCUAUAUCACUCUUCGAAGGAGCGGACGAAAGUCCAGGUAGGUCGCGAAGAGUGAUGUUCUUUGCGGCGCUGG [Omei KL Arginine A Exc A v5] | 94.1 | 60.8 | 75.4 | 132 | 111
UAAUAAAUUCUGGCAAUGUCACUCUUCGAAGGAGCGGACGAAAGUCCAGGUAGGUCGCGAAGAGUGAUGUUCUUCGCGGCGCCAG [Omei KL Arginine A Exc A v1] | 299 | 235 | 235 | 304 | 268
UAAUGUGGCACAGGAUAUACUGAUUGGAGUGAUGUUCCAAACAUGGACGUGAGACUUUUACAAGAAGUAGAAGGGUGUUAGAUAU [Exclusion FMN B GF 20] | 241 | 298 | 304 | 448 | 306
UAAUUUAUGUCUUUAAUAUAAUAAUCAGAUACCAGUGAUUUAUGACACCCUUGGCAGCUGUAUAGAGUGAUGUUCUUAUACAUAA [JR_Nu_ExcTheophyA_Sub020] | 388 | 504 | 483 | 547 | 294
UAAUUUAUGUCUUUAAUAUAAUUUUCAGAUACCAGUGAUUAUUAACACCCUUGGCAGCUGUGUAGAGUGAUGUUCUCAUGCUUAA [#07 K4 Theophylline A Exclusion] | 307 | 354 | 365 | 373 | 229
UACACGACUCGUGUAAACCGAGGUAACAGGCAGGAUAUGUAACGGAACAGAAGGGCCAUGUAGCGUGUCCAGUGAUGUUGGAUGC [Betilare] | 199 | 166 | 186 | 180 | 173
UACAUAUUAUUAUUUCUACAUUUAUUUAGUCAGGAUAUCGAUUAAACGAGAAGGGACAAUAUCAAGUGAUGUUUGAUAAUUCAAA [JR_SSFMNA_Sub022] | 85.3 | 123 | 81.6 | 118 | 60
UACUAUAGUGAUGUUAUAGAUAAAACAGAUACCAGUGUAACAUAACACCCUUGGCAGCUGAUAAGGGAAAGUAUAAAUGUGUAUU [AstrosSSTHe-A#2newdesignED] | 207 | 188 | 199 | 208 | 186
UACUAUAGUGAUGUUAUAGAUAAACCAGAUACCAGUGUAACAUAACACCCUUGGCAGCUGAUAAGGGAAAGUAUAAAUGUGUAUU [AstrosSSTHe-A#3newdesignED] | 230 | 198 | 228 | 219 | 205
UACUAUAGUGAUGUUAUAGAUAAACCAGAUACCAGUGUAACAUAACACCCUUGGCAGCUGAUGAGGGAAGUUAUCAAAAGAUAAC [AstroSTH-A#10designED4.80] | 227 | 190 | 142 | 115 | 198
UAGCGGUAGAGGCCACCGCUAUUCUGAGAAGGAGCGCAGAUGACUGCAGGUAGGUCGCUUAGAGCUUGCAGUGAUGUUGCAAGUU [Tebete] | 171 | 175 | 179 | 145 | 131
UAGUCCGGGUGAUGGUCAUCACGUGGCGGGCGAGGACCGGUACGGCCGCCACUCGACUUUGCAGUGAUGUUGCAAACCGGACAAU [Exclusion - Tryptophan A (Freestyle 22)] | 221 | 192 | 201 | 225 | 259

Sequence | apparent KD of K4 kissing-loop reporter (input ligand: FMN 200 uM) [nM] | apparent KD of K4 kissing-loop reporter (input ligand: arginine 13.2 mM) [nM] | apparent KD of K4 kissing-loop reporter (input ligand: none) [nM] | apparent KD of K4 kissing-loop reporter [1] [nM] | apparent KD of K4 kissing-loop reporter [2] [nM]
UAUAUAGUGACGGCCGCCACUAUUGUGAUUUAAUUGUUAGAGUGAUGUUUUGUUGUUUGAUUUUGUAGGACCGGGUUAUAUGUUA [vnbbwzmullin] | 1090 | 851 | 982 | 794 | 839
UAUAUAUGAUGUGAUACCAGUGAAAAGCCAGUGAUGUUGGAGGAGCUGGUAUAUAAAUAAGACCCUUGGCAGCACAAUCACGUAU [#01 K4 Theophylline B Exclusion] | 227 | 202 | 212 | 221 | 214
UAUUUAAAUAAAAUAAAAUAAAUUGCUGAUACCAGAGCCAAUUGGCUCCCUUGGCAGCGGAUCGAGUGAUGUUCGUAAAAUUUAU [AK2 SS Theophylline A] | 28.5 | 65.4 | 29.6 | 61.5 | 30.3
UAUUUAGUGACGGCCGCCACUAUUGUGAUUUAUUUGUUUGAGUGAUGUUUUGAUGUUUGAUUUUGUAGGACCGGGUUAUGUGUUA [awscmullin] | 1080 | 733 | 938 | 804 | 708
UCCAGGAAUCAUGUCGUAGUGAUGUUAUGACGAGGACCGGUACGGCCGCCACUCGUCGUGGCCGGUUCUGAGGGCUAAUCUCUCA [theeternabot_exclusion_KL_Trp_A_34] | 247 | 214 | 273 | 227 | 632
UCCCUAAAGGGAGAUACCAGUAAAGAAGUGACGGAGUGGAGUGAUGUUCCAUAUUACUGAUACCCUUGGCAGCUCUUUUGAUUAC [theeternabot_sameState_KL_Theo_B_47] | 108 | 155 | 113 | 187 | 93.2
UCCUAGGCUCGAAAGAGCCUAGGAUUAUCUCAGGAUAUCCGGAAACGGAGAAGGGAGAAACUAGUGAUGUUAGGGAUUCCCUCUU | 421 | 110 | 145 | 135 | 126
UCCUGCAAUCGACCACGAAAGUGGAUGGAUACCAGAGUCGAAAGACUCCCUUGGCAGCCAGUGAUGUUGGAAGCAGGUAAAUAAA [#SwitchBubble 17 #K4Late] | 364 | 359 | 445 | 288 | 406
UCCUGCAAUCUGCCACGAAAGUGGGUUGAUACCAGAGUCGAAAGACUCCCUUGGCAGCGAGUGAUGUUCGUUGCAGGUAAAUAAA [MatMod 8 - Jieux - Exclusion - Theophylline A] | 194 | 163 | 200 | 180 | 168
UCCUGCACGGUCGAUACCAGCCUAUGCAGUGAUGUUGUAAGGUUGUCACUUUAGUACGAAGGCCCUUGGCAGCGAUGAUGUAACA [theeternabot_exclusion_KL_Theo_B_41] | 601 | 470 | 604 | 504 | 464
UCGAUAGCCAGCGAUACCAGCCCAGUGAUGUUGGGCACAUGGUUGCGGGAAAUCCUAUUGGGCCCUUGGCAGCGCUUGCAUGGGU [Anbixeza] | 127 | 118 | 119 | 107 | 110
UCGGAGGGAGCGGCCGCCACUGUAUUACCUCGACGAACGCCGGUUUUCAUGAAGUGAUGUUUCGCCAGGACCGGGCUAAUCUGAG [theeternabot_exclusion_KL_Trp_B_46] | 244 | 202 | 235 | 217 | 206
UCGGCAAAGUCGGCCGCCACUCCGGGCCCUAUAAAUGGGCGCAGUGAUGUUGCGGCUAGGCCUCUGAGGACCGGGACUUUGUAAA [Atordied] | 185 | 63.1 | 54.5 | 61.7 | 219
UCUGUUGUAUAUGAUACCAGCAGUGAGAGAUGAGAAGUAUAGUGAUGUUAUAUGAGUGAAUGCCCUUGGCAGCGUGUGCGUGUGG [SSTheophylB.aD] | 101 | 112 | 94 | 134 | 87.5
UGAACCCGGUCGGCCGCCACUCUGAGAACCAUCGCCCUACGUGCAGUGAUGUUGUACCUAAUGAGGAGGACCGGGACUGGGCGGC [theeternabot_sameState_KL_Trp_B_36] | 316 | 277 | 360 | 204 | 223
UGAACUGUCUGCGAUACCAGCUAAGGAGUGAUGUUCCGGCUCGACGAAACGUCGAGCCAUAGCCCUUGGCAGCGCAGACAGUUCA [#28 K4 Theophylline B Same State] | 387 | 160 | 334 | 721 | 272
UGACAUUGCUCAGAUACCAGACCUGAGGAUCACCCGGGUGCCAAAACGUACUAAAUAAAGGUCCCUUGGCAGCUGAGCAAUGUCU [TheoBX 13] | 56.9 | 43.7 | 65.5 | 49.5 | 89.5
UGACUACAAAAGGAAUAAUCCUAGUGAUGUUAGGAUAUGCUGAUAAGCAGAAGGAACGGAGAUCGAAAGAUCUCAAAUGUAGUCU [whbob_Ex_FMNA__2th191] | 153 | 89.8 | 82.9 | 112 | 86
UGACUGGACUGAAGGAGCGCGCGAGACAAAGUCUCGAACUCCUAGUGAUGUUAGGAAAUAACGCAGGUAGGUCGCAGUCUAGUCU [ArgBS 10 #SwitchBubble #StaticStem #DoubleMagnet] | 225 | 190 | 243 | 209 | 241
UGACUGGACUGAAGGAGCGCGCGAGACAAAGUCUCGAACUCUUAGUGAUGUUAGGAAAUAACGCAGGUAGGUCGCAGUCUAGUCU | 381 | 247 | 332 | 473 | 408
UGACUGGACUGAAGGAGCGCUAAAACUCCUAGUGAUGUUGGGAAAACGAGACAAAGUCUCGAGCAGGUAGGUCGCAGUCUAGUCU [ArgBS 22 #SwitchBubble #StaticStem] | 302 | 196 | 253 | 278 | 258
